Results taken from paper PMC3108429.

Legend:
[1] = biological target: taxol-stabilized microtubules; assay: bead binding to microtubules counted by DIC microscopy
[2] = biological target: dynamic microtubules grown from GMPCPP-stabilized microtubule seeds (bovine); assay: constant-force laser trap bead motility assay

Row | Substance | microtubule-bound beads per field (beads per field) [1] | mean attachment lifetime at 1 pN tension [2] | mean attachment lifetime at 5 pN tension [2]
1 | Dsn1-HIS-FLAG kinetochore particles from the spc105-15 mutant strain (from UniProt P40568 1-576; P53148 1-917) (complex) | 4 | – | –
2 | Dsn1-HIS-FLAG kinetochore particles from the dad1-1 mutant strain (from UniProt P40568 1-576; Q12248 1-94) (complex) | 18 | – | –
3 | Dsn1-HIS-FLAG kinetochore particles from wild-type cells (from UniProt P40568 1-576) (complex) | 22 | 21 min | 50 min
4 | Dsn1-HIS-FLAG kinetochore particles from the ndc80-1 mutant strain (from UniProt P40568 1-576; P40460 1-691) (complex) | 2 | – | –
